Results taken from patent US20200384118A1, “IMMUNOTOXIN CONJUGATES FOR USE IN THERAPY” (FRIEDRICH-ALEXANDER-UNIVERSITAT ERLANGEN-NURNBERG, priority 2017, published 2020).

B1: Moxe: reference immunotoxin compared with LMIT-2 in FIG. 2B; not further defined in the text (antibody, chains of the INN, looked up, V domains shown)
VH: EVQLVESGGGLVKPGGSLKLSCAASGFAFSIYDMSWVRQTPEKCLEWVAYISSGGGTTYYPDTVKGRFTISRDNAKNTLYLQMSSLKSEDTAMYYCARHSGYGTHWGVLFAYWGQGTLVTVSA
VL: DIQMTQTTSSLSASLGDRVTISCRASQDISNYLNWYQQKPDGTVKLLIYYTSILHSGVPSRFSGSGSGTDYSLTISNLEQEDFATYFCQQGNTLPWTFGCGTKLEI
modifications: pasudotox (PE38 toxin fusion)
notes: not further defined in the text
B2: PV: CD22-targeting IgG-based ADC, antibody conjugated with MMAE (conjugate, chains of the INN, looked up)
VH: EVQLVESGGGLVQPGGSLRLSCAASGYEFSRSWMNWVRQAPGKGLEWVGRIYPGDGDTNYSGKFKGRFTISADTSKNTAYLQMNSLRAEDTAVYYCARDGSSWDWYFDVWGQGTLVTVSS
VL: DIQMTQSPSSLSASVGDRVTITCRSSQSIVHSVGNTFLEWYQQKPGKAPKLLIYKVSNRFSGVPSRFSGSGSGTDFTLTISSLQPEDFATYYCFQGSQFPYTFGQGTKVEIK
modifications: vedotin (MMAE) payload

Columns and labels:
[1] = cytotoxicity of immunotoxins and blocking of LMIT-2 by LMIT-3 (FIG. 2B); assay type: cell-based
many cell lines [2] = details: published activity of PV; cited from earlier work
many cell lines [3] = experiment: molar activity in vitro against many cell lines (FIG. 3B); assay type: cell-based; details: on average, PV from published activity
Experimental: FIG. 3: Activity of Duotoxins in vitro.
LMIT-2-DM1 was tested against various cell lines (FIG. 3A). […] Cells like DOHH-2 that are resistant to immunotoxins were sensitive to the LMIT-2-DM1. We have not found a cell line which is resistant to both, the PE and the DM1 in vitro. […] On average 3.6 DM1 molecules per LMIT-3 molecule were coupled. […] The activity of PV varies substantially over a 3-log concentration range. […] The activity is tested by plating the above described cell lines at 20,000 cells per well in a 96-well plate. The immunotoxin or duotoxin is added at indicated concentrations in a three-fold serial dilution, the cells incubated in a humidified incubator for 72 hours. The cells are then collected by centrifugation, stained with 7-AAD and Annexin V and cell death determined by flow cytometry. The concentration at which 50% of the cells are killed (IC50) reflects the activity of a drug against a cell and is determined from the flow cytometry data by non-linear regression analysis.

| Molecule | activity of LMIT-2 compared with Moxe [1] | variation of activity over concentration range (many cell lines [2]) | activity relative to LMIT-2 (less active) (many cell lines [3]) |
| --- | --- | --- | --- |
| B1 | comparable activity |  |  |
| B2 |  | 3 log | 3 logs |
